# Values of other authors as cited in PMC3728333, “Development of an Epidermal Growth Factor Derivative with EGFR Blocking Activity” (PLoS ONE, 2013).
# What was measured:
# [1] = tested on: EGFR-positive breast cancer; conditions: ref [44], [45]
# Excerpt: (§1) Moreover, EGFt could also be used as a targeted toxin delivery agent. In this respect, we are currently developing ^111In–DTPA–EGFt as a potential Auger electron-emitting radiotherapeutic for EGFR-positive breast cancer.
# [2] = tested on: EGFR-positive breast cancer cells
# Excerpt: as §1
molecule,measurement,setting,value
"^111In-DTPA-hEGF: ^111In-DTPA-hEGF, Kd value obtained from previous work (conjugate, UniProt P01133 23-1207, looked up, Pro-epidermal growth factor 111In-DTPA) Pro-epidermal growth factor: PQHWSCPEGTLAGNGNSTCVGPAPFLIFSHGNSIFRIDTEGTNYEQLVVDAGVSVIMDFHYNEKRIYWVDLERQLLQRVFLNGSRQERVCNIEKNVSGMAINWINEEVIWSNQQEGIITVTDMKGNNSHILLSALKYPANVAVDPVERFIFWSSEVAGSLYRADLDGVGVKALLETSEKITAVSLDVLDKRLFWIQYNREGSNSLICSCDYDGGSVHISKHPTQHNLFAMSLFGDRIFYSTWKMKTIWIANKHTGKDMVRINLHSSFVPLGELKVVHPLAQPKAEDDTWEPEQKLCKLRKGNCSSTVCGQDLQSHLCMCAEGYALSRDRKYCEDVNECAFWNHGCTLGCKNTPGSYYCTCPVGFVLLPDGKRCHQLVSCPRNVSECSHDCVLTSEGPLCFCPEGSVLERDGKTCSGCSSPDNGGCSQLCVPLSPVSWECDCFPGYDLQLDEKSCAASGPQPFLLFANSQDIRHMHFDGTDYGTLLSQQMGMVYALDHDPVENKIYFAHTALKWIERANMDGSQRERLIEEGVDVPEGLAVDWIGRRFYWTDRGKSLIGRSDLNGKRSKIITKENISQPRGIAVHPMAKRLFWTDTGINPRIESSSLQGLGRLVIASSDLIWPSGITIDFLTDKLYWCDAKQSVIEMANLDGSKRRRLTQNDVGHPFAVAVFEDYVWFSDWAMPSVMRVNKRTGKDRVRLQGSMLKPSSLVVVHPLAKPGADPCLYQNGGCEHICKKRLGTAWCSCREGFMKASDGKTCLALDGHQLLAGGEVDLKNQVTPLDILSKTRVSEDNITESQHMLVAEIMVSDQDDCAPVGCSMYARCISEGEDATCQCLKGFAGDGKLCSDIDECEMGVPVCPPASSKCINTEGGYVCRCSEGYQGDGIHCLDIDECQLGEHSCGENASCTNTEGGYTCMCAGRLSEPGLICPDSTPPPHLREDDHHYSVRNSDSECPLSHDGYCLHDGVCMYIEALDKYACNCVVGYIGERCQYRDLKWWELRHAGHGQQQKVIVVAVCVVVLVMLLLLSLWGAHYYRTQKLLSKNPKNPYEESSRDVRSRRPADTEDGMSSCPQPWFVVIKEHQDLKNGGQPVAGEDGQAADGSMQPTSWRQEPQLCGMGTEQGCWIPVSSDKGSCPQVMERSFHMPSYGTQTLEGGVEKPHSLLSANPLWQQRALDPPHQMELTQ",tumour growth inhibition in vivo,[1],tumour growth-inhibition in vivo
same,cytotoxic effects in vitro,[2],potent cytotoxic effects in vitro
